According to publication PMC5148762:

Molecular target: protein G B1
Assay: quartz crystal microbalance with dissipation monitoring (QCM-D); protein G B1 adsorbed from 5 ug/ml in PBS onto polystyrene-coated gold quartz sensors, rinsed, then IgG flowed at 5 ug/ml in PBS, 150 ul/min, pH 7.4, 22 °C; mass by the Sauerbrey equation

IgG antibody
Sauerbrey mass bound: 350 ng/cm^2
